Laboratory results published in US20040018971A1 (published 2004).

Assays:
HLA-A*0101 = biological target: T1, HLA-A*0101 (human); assay: inhibition of 125I-labeled probe peptide binding to purified HLA-A*0101, gel filtration
T1 construct: also called HLA-A1

[1] = biological target: T2, HLA-A*0301 (purified HLA class I molecule) (human); assay: inhibition of 125I probe peptide binding to purified HLA; ratio to standard peptide; minus sign not explained
T2 construct: also called A3

[2] = biological target: HLA-A*1101 (purified HLA class I molecule) (human); assay: inhibition of 125I probe peptide binding to purified HLA; ratio to standard peptide
HLA-A*0301 [3] = biological target: T3, HLA-A*0301 (human); assay: competition with 125I-labelled probe peptide for purified HLA-A*0301, gel filtration; ratio to standard peptide 941.12
T3 construct: also called HLA-A3

HLA-A*0301 [4] = biological target: T4, HLA-A*0301 (human); assay: competition with 125I-labelled standard peptide for purified HLA, gel filtration
T4 construct: also called A3

HLA-A*1101 [5] = biological target: T5, HLA-A*1101 (human); assay: as above
T5 construct: The construct is not described

HLA-A*6801 = HLA-A*6801 (human); assay: inhibition of 125I-labelled standard peptide binding to purified HLA, gel filtration
HLA-A*1101 [6] = biological target: HLA-A*1101 (human); assay: as above
HLA-A*3101 = HLA-A*3101 (human); assay: as above
HLA-A*0301 [7] = biological target: HLA-A*0301 (human); assay: as above
HLA-A*3301 = HLA-A*3301 (human); assay: as above
HLA-A*0301 [8] = biological target: T6, HLA-A*0301 (human); assay: inhibition of 125I-labelled standard peptide 941.12 binding to purified HLA-A*0301, gel filtration
T6 construct: also called HLA-A3

HLA-DRB1*0101 = biological target: T7, HLA-DRB1*0101 (human); assay: competition with 125I probe peptide, purified HLA
T7 construct: also called DR1

HLA-A*1101 [9] = biological target: HLA-A*1101 (human); assay: competition with 125I-labelled probe peptide for purified HLA-A*1101, gel filtration; ratio to standard peptide 940.06 [..] (6.0 nM)

Work on ASCVTACPY (HER2/neu peptide, 9-mer) [Her2/neu.293] yielded an IC50 (HLA-A*0101) of 455 nM.

For ATCVTACPY (HER2/neu analog peptide) [Her2/neu.293.T2], the IC50 (HLA-A*0101) was 49 nM.

With GMSYLEDVR (also called Her2/neu.832 (9-mer)) [HER2/neu peptide, position 832, 9 amino acids] the relative binding ratio [1] was -0.0002 ratio (IC50 standard / IC50 test) and the relative binding ratio [2] was 0.0002 ratio (IC50 standard / IC50 test).

With EADQCVACAHY (HER2/neu peptide) [Her2/neu.580] the IC50 (HLA-A*0101) was 250 nM.

In the case of ESMPNPEGR (Synthetic peptide) [HER2/neu peptide, position 280, 9 amino acids (ESMPNPEGR)], the “relative binding ratio (IC50 of standard peptide / IC50 of test peptide)” value (HLA-A*0301 [3]) is reported as 0.0003 ratio.

For GTDMKLRLPY (HER2/neu analog peptide) [Her2/neu.28.Y10], the IC50 (HLA-A*0101) was 50 nM.

B1: HER2/neu peptide, position 835, 10 amino acids (peptide)
peptide: YLEDVRLVHR
notes: Synthetic peptide; also called Her2/neu.835 (10-mer)
In the case of B1, the relative binding ratio (HLA-A*0301 [4]) is reported as 0.0003 ratio (IC50 of standard peptide / IC50 of test peptide) and the relative binding ratio (HLA-A*1101 [5]) is reported as 0.0001 ratio (IC50 of standard peptide / IC50 of test peptide).

B2: HER2/neu peptide, position 739, 9 amino acids (peptide)
peptide: WIPDGENVK
notes: Synthetic peptide; also called Her2/neu.739 (9-mer)
B2 was tested, and the relative binding ratio (HLA-A*0301 [4]) was 0.0002 ratio (IC50 of standard peptide / IC50 of test peptide) and the relative binding ratio (HLA-A*1101 [5]) was 0.0001 ratio (IC50 of standard peptide / IC50 of test peptide).

For GAGGMVHHR (also called Her2/neu.1038 (9-mer)) [HER2/neu peptide, position 1038, 9 amino acids], the relative binding ratio [1] was -0.0002 ratio (IC50 standard / IC50 test) and the relative binding ratio [2] was 0.0043 ratio (IC50 standard / IC50 test).

With NVKIPVAIK (Synthetic A3 supermotif peptide) [HER2/neu peptide, position 745, 9 amino acids] the relative binding ratio (HLA-A*6801) was 0.12 ratio (IC50 of standard peptide / IC50 of test peptide), the relative binding ratio (HLA-A*1101 [6]) was 0.0007 ratio (IC50 of standard peptide / IC50 of test peptide) and the relative binding ratio (HLA-A*3101) was 0.0015 ratio (IC50 of standard peptide / IC50 of test peptide). The relative binding ratio (HLA-A*0301 [7]) was 0.0058 ratio (IC50 of standard peptide / IC50 of test peptide) and the relative binding ratio (HLA-A*3301) was 0.082 ratio (IC50 of standard peptide / IC50 of test peptide).

In the case of ELHCPALVTY (Synthetic peptide) [HER2/neu peptide, position 265, 10 amino acids (ELHCPALVTY)], the “relative binding ratio (IC50 of standard peptide / IC50 of test peptide)” value (HLA-A*0301 [3]) is reported as 0.0002 ratio.

For PTHDPSPLQR (H was used here) [HER2/neu peptide, position 1102, 10 amino acids], the “relative binding ratio (IC50 of standard peptide / IC50 of test peptide)” value (HLA-A*0301 [8]) was 0.0003 ratio.

Binder LTSIISAVVGILLVV [Her2/neu.651] has an IC50 (HLA-DRB1*0101) of 26 nM.

With WMALESILRR (also called Her2/neu.888) the “relative binding ratio (IC50 of standard peptide / IC50 of test peptide)” value (HLA-A*1101 [9]) was 0.0016 ratio.

In the case of GTDLFEDNY (HER2/neu analog peptide) [Her2/neu.104.D3], the IC50 (HLA-A*0101) is reported as 0.9 nM.

In the case of DMKLRLPASPETHLD [Her2/neu.30], the IC50 (HLA-DRB1*0101) is reported as 5000 nM.

In the case of PLPSETDGY [HER2/neu peptide, position 1119, 9 amino acids], the “relative binding ratio (IC50 of standard peptide / IC50 of test peptide)” value (HLA-A*0301 [8]) is reported as 0.0002 ratio.

Work on HTDMLRHLY (HER2/neu analog peptide) [Her2/neu.42.T2] yielded an IC50 (HLA-A*0101) of 1.9 nM.

With FSRMARDPQR (also called Her2/neu.976 (10-mer)) [HER2/neu peptide, position 976, 10 amino acids] the relative binding ratio [1] was -0.0002 ratio (IC50 standard / IC50 test) and the relative binding ratio [2] was 0.001 ratio (IC50 standard / IC50 test).

VFETLEEITGY (HER2/neu peptide) [Her2/neu.399] showed an IC50 (HLA-A*0101) of 5560 nM.

For QVRQVPLQR [HER2/neu peptide, position 90, 9 amino acids], the “relative binding ratio (IC50 of standard peptide / IC50 of test peptide)” value (HLA-A*0301 [8]) was 0.0029 ratio.

B3: HER2/neu peptide, position 973, 9 amino acids (peptide)
peptide: VSEFSRMAR
notes: Synthetic peptide; also called Her2/neu.973 (9-mer)
B3 was tested, and the relative binding ratio (HLA-A*0301 [4]) was -0.0002 ratio (IC50 of standard peptide / IC50 of test peptide) and the relative binding ratio (HLA-A*1101 [5]) was 0.0021 ratio (IC50 of standard peptide / IC50 of test peptide).

In the case of PSGVKPDLSY [HER2/neu peptide, position 601, 10 amino acids], the “relative binding ratio (IC50 of standard peptide / IC50 of test peptide)” value (HLA-A*0301 [8]) is reported as 0.0003 ratio.

B4: HER2/neu peptide, position 888, 10 amino acids (peptide)
peptide: WMALESILRR
notes: Synthetic peptide; also called Her2/neu.888 (10-mer)
With B4 the relative binding ratio (HLA-A*0301 [4]) was 0.0085 ratio (IC50 of standard peptide / IC50 of test peptide) and the relative binding ratio (HLA-A*1101 [5]) was 0.0016 ratio (IC50 of standard peptide / IC50 of test peptide).

With VTACPYNY (HER2/neu peptide) [Her2/neu.296] the IC50 (HLA-A*0101) was 250 nM.

In the case of ETLEEITGY (Synthetic peptide) [HER2/neu peptide, position 401, 9 amino acids (ETLEEITGY)], the “relative binding ratio (IC50 of standard peptide / IC50 of test peptide)” value (HLA-A*0301 [3]) is reported as 0.0002 ratio.

In the case of DLSYMPIWK (Synthetic peptide) [HER2/neu peptide, position 607, 9 amino acids (DLSYMPIWK)], the “relative binding ratio (IC50 of standard peptide / IC50 of test peptide)” value (HLA-A*0301 [3]) is reported as 0.0005 ratio.

ETHLDMLRHLY (HER2/neu peptide) [Her2/neu.40] was tested, and the IC50 (HLA-A*0101) was 89 nM.

B5: HER2/neu peptide, position 888, 9 amino acids (peptide)
peptide: WMALESILR
notes: Synthetic peptide; also called Her2/neu.888 (9-mer)
B5 was tested, and the relative binding ratio (HLA-A*0301 [4]) was -0.0002 ratio (IC50 of standard peptide / IC50 of test peptide) and the relative binding ratio (HLA-A*1101 [5]) was -0.0002 ratio (IC50 of standard peptide / IC50 of test peptide).
